Source: publication doi:10.1101/2020.09.10.287607 (bioRxiv, 2020)
Each block holds one binder with its values, some of them ahead of it.

Legend:
Assay in all cases: in vitro binding assay
[1] = molecular target: T1, recombinant human RSPO2 (Peprotech 120-43) (human, UniProt Q6UXX9 22-243)
[2] = molecular target: T1, recombinant human RSPO2 (Peprotech …); remark: listed apart in the source
[3] = molecular target: T2, recombinant human RSPO3 (Peprotech 120-44) (human, UniProt Q9BXY4 22-272)
T2 sequence (looked up): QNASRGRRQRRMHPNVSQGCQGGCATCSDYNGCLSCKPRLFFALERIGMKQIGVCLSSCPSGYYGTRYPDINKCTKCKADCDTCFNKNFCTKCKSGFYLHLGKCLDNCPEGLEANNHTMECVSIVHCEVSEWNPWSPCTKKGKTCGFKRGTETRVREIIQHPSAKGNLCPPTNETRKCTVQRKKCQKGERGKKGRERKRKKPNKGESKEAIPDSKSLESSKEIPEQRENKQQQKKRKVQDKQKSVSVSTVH

T1 sequence (Q6UXX9 22-243): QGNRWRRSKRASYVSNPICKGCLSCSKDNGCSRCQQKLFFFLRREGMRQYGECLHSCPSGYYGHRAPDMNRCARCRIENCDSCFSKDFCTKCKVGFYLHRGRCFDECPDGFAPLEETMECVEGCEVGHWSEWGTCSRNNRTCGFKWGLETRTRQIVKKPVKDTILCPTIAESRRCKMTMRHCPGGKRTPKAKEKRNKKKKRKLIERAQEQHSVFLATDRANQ

Kd [1]: ~4.8 nM
B1: BMPR1A^ECD-AP (domain or fragment, UniProt P36894 24-152, looked up)
chain: QNLDSMLHGTGMKSDSDQKKSENGVTLAPEDTLPFLKCYCSGHCPDDAINNTCITNGHCFAIIEEDDQGETTLASGCMKYEGSDFQCKDSPKAQLRRTIECCRTNLCNQYLQPTLPPVVIGPFFDGSIR

binding result [2]: binds | binding result [3]: binds
B2: recombinant human ZNRF3 Fc Chimera protein (R&D systems 7994-RF) (Fc fusion, UniProt Q9ULT6 56-219, looked up)
chain: KETAFVEVVLFESSPSGDYTTYTTGLTGRFSRAGATLSAEGEIVQMHPLGLCNNNDEEDLYEYGWVGVVKLEQPELDPKPCLTVLGKAKRAVQRGATAVIFDVSENPEAIDQLNQGSEDPLKRPVVYVKGADAIKLMNIVNKQKVARARIQHRPPRQPTEYFDM
